# According to patent US20150086555A1 (THERACLONE SCIENCES, published 2015):
# B1: TCN-533 (5256_A17a) (antibody, V domains shown)
# VH: QVQLVQSGADVKKPGSSVTVSCKASGGSFSNYGINWVRQAPGQGLEWMGGIIPLINAPNYAPKFQGRVTITADMFSNIVSLQLTSLRTDDTAVYYCARRKMTTAIDYWGQGTLVTVSS
# VL: QPVLTQPPSASASLGASVTLTCTLSSAYSNYKVDWYQQRPGKGPRFVMRVGTGGIVGSKGDGIPDRFSVLGSGLNRYLTIKNIQEEDESDYHCGADHGSGSNFVSPYVFGGGTKLTVL
# B2: TCN-533 (5256_A17a) (antibody, V domains shown)
# VH: B1 VH
# VL: B1 VL
# B3: TCN-533 (5256_A17a) (antibody, V domains shown)
# VH: B1 VH
# VL: B1 VL
# B4: TCN-556 (5089_K12) (antibody, V domains shown)
# VH: QVQLVQSGAEVKKPGASVKVSCKASGYTFIGYDMHWVRQAPGQGLEWMGWINAKRGGTNYAQKFQGRVTMTRDTSISTAYMELNSLRSDDTAVYYCARGVGSRTTIFGVLNPEFDYWGQGTLVTVSS
# VL: QSALTQPPSASGSPGQSVTISCTGSSSDVGGYDYVSWYQQHPGKAPKLLIYEVTKRPSGVPDRFSGSKSGNTASLTVSGLQAEDEADYYCSSYAGNYNHVFGPGTKVTVL
# B5: TCN-556 (5089_K12) (antibody, V domains shown)
# VH: B4 VH
# VL: B4 VL
# B6: TCN-560 (5084_P10) (antibody, V domains shown)
# VH: EVQLVESGGGLVQPGGSLRLSCAASGFIFRNYWMSWVRQAPGKGLEWVANIKQDGREKYYVDSLRGRVNISRDNAENSLYLHMNSLRVEDTAVYFCARARMVVVTGDGFDVWGHGTMVTVSS
# VL: DIQMTQSPSSLSASVGDRVTITCRASQNIKRYFNWYQQKPGKAPKLLIYAASNLENGVPSRFSGSGSGTDFTLTISSLQPEDFATYYCQQSFSKSWTFGQGTNVDIK
# Assays:
# [1] = target: recombinant soluble homotrimeric HA of A/common magpie/Hong Kong/5052/07 (H5N1) (Influenza A virus A/common magpie/Hong …); experiment: trimeric HA microarray, transfection supernatant set 3
# [2] = target: recombinant homotrimeric HA A/common magpie/Hong Kong/5052/07 H5N1 (Influenza A virus A/common magpie/Hong …); experiment: protein microarray, purified IgG, trimeric HA
# [3] = target: recombinant soluble homotrimeric HA of A/common magpie/Hong Kong/5052/07 (H5N1) (Influenza A virus A/common magpie/Hong …); experiment: HA microarray, BCC supernatant
# [4] = target: recombinant soluble homotrimeric HA, A/common magpie/Hong Kong/5052/07 H5N1 (Influenza A virus A/common magpie/Hong …); experiment: microarray, transfection SN IgG, trimeric HA
binder,measurement,setting,value
B1,Trimeric HA Binding: RLU,[1],25200 RLU
B2,Trimeric HA Binding: RLU,[2],19000 RLU
B3,Trimeric HA Binding: RLU,[3],44500 RLU
B4,Trimeric HA Binding: RLU,[4],20100 RLU
B5,Trimeric HA Binding: RLU,[2],25600 RLU
B6,Trimeric HA Binding: RLU,[4],30500 RLU
